Reference: PMC9173642 (PLoS ONE, 2022)

B1: FLrArc-7A, full-length rat Arc with residues 113-119 mutated to Ala (natural protein, UniProt Q63053 1-396, looked up)
chain: MELDHMTTGGLHAYPAPRGGPAAKPNVILQIGKCRAEMLEHVRRTHRHLLTEVSKQVERELKGLHRSVGKLENNLDGYVPTGDSQRWKKSIKACLCRCQETIANLERWVKREAAAAAAAFYRLERWADRLESMGGKYPVGSEPARHTVSVGVGGPEPYCQEADGYDYTVSPYAITPPPAAGELPEQESVGAQQYQSWVPGEDGQPSPGVDTQIFEDPREFLSHLEEYLRQVGGSEEYWLSQIQNHMNGPAKKWWEFKQGSVKNWVEFKKEFLQYSEGTLSREAIQRELDLPQKQGEPLDQFLWRKRDLYQTLYVDAEEEEIIQYVVGTLQPKFKRFLRHPLPKTLEQLIQRGMEVQDGLEQAAEPSVTPLPTEDETEALTPALTSESVASDRTQPE
notes: Expressed from pHMGWA as His6-MBP fusion; Dimer by SAXS; also called poly-Ala rArc mutant; FLArc-7A; source: E. coli BL21(DE3)-RIPL, purified (details in S1 Protocol)
B2: E5 [NbArc-E5] (VHH)
VHH: EVQLQESGGGLVQAGGSLRLSCAASGSIFSGNAMGWYRQAPGKQREVVAVISAGNSSNYVDSVKGRFTISRDNAKNTVYLQMNSLKPEDTAVYYCNVVKRGPQWGMEWGKGTLVTVSS
B3: NbArc-E5 (VHH)
VHH: B2 VHH
notes: From NanoTag Technologies, His6-TEV-Nb in pNT1433; also called Nb E5; sdAb E5; source: E. coli BL21(DE3), purified (NiNTA, TEV proteolysis, SEC); not shown: His6, N-terminal, cleaved
B4: stargazin (Stg) peptide (peptide)
peptide: Ac-RIPSYRYR-NH2
notes: peptide from the cytosolic tail of stargazin (Stg), auxiliary subunit of AMPA receptors
B5: NbArc-B5 (VHH)
VHH: EVQLQESGGGLVEAGGSLRLSCAASGHTSSTVNMAWYRQAPGKEREWVARVFWTDGATYYSDSVKGRFTISRDNTKQRVNLQMNNLKPEDTAIYYCALRAPSSQRLYWGQGTQVTVSS
notes: From NanoTag Technologies, His6-TEV-Nb in pNT1433; also called sdAb B5; source: E. coli BL21(DE3), purified (NiNTA, TEV proteolysis, SEC); not shown: His6, N-terminal, cleaved
B6: MBP-2rNT, N-terminal domain of rat Arc (residues 24-137) with the poly-Ala mutation, fused to His6-MBP (domain or fragment, UniProt Q63053 24-137, looked up)
chain: KPNVILQIGKCRAEMLEHVRRTHRHLLTEVSKQVERELKGLHRSVGKLENNLDGYVPTGDSQRWKKSIKACLCRCQETIANLERWVKREAAAAAAAFYRLERWADRLESMGGKY
notes: Insoluble without the MBP fusion partner; dimer by SAXS; also called NTD; rArc-NTD; source: E. coli BL21(DE3)-RIPL, purified (details in S1 Protocol); not shown: His6, N-terminal, kept; MBP, N-terminal, kept
B7: C11 [NbArc-C11] (VHH)
VHH: EVQLVESGGGLVQAGGSLRLSCAASGRTSGALNVAWYRQATGKEREYVARLWWNDGTTYYSDSVKGRFTISSDNAKKIVYLQMNRLKPDDTAIYYCAVRTPSSQTLYWGQGTQVTVSS
B8: NbArc-C11 (VHH)
VHH: B7 VHH
notes: From NanoTag Technologies, His6-TEV-Nb in pNT1433; also called Nb C11; sdAb C11; source: E. coli BL21(DE3), purified (NiNTA, TEV proteolysis, SEC); not shown: His6, N-terminal, cleaved
B9: NbArc-H11 (VHH)
VHH: EVQLLESGGGLVQAGDSLRLSCAASGRTFSAYAMGWFRQAPGKEREFVAAISWSGNSTYYADSVKGRFTISRDNAKNTVYLQMNSLKPEDTAIYYCAARKPMYRVDISKGQNYDYWGQGTQVTVSS
notes: From NanoTag Technologies, His6-TEV-Nb in pNT1433; long CDR3 with a P-x-Y motif (Pro103, Tyr105); also called Nb H11; sdAb H11; source: E. coli BL21(DE3), purified (NiNTA, TEV proteolysis, SEC); not shown: His6, N-terminal, cleaved
B10: full-length human Arc (FLhArc), capsid-containing preparation (natural protein, UniProt Q7LC44 1-396, looked up)
chain: MELDHRTSGGLHAYPGPRGGQVAKPNVILQIGKCRAEMLEHVRRTHRHLLAEVSKQVERELKGLHRSVGKLESNLDGYVPTSDSQRWKKSIKACLCRCQETIANLERWVKREMHVWREVFYRLERWADRLESTGGKYPVGSESARHTVSVGVGGPESYCHEADGYDYTVSPYAITPPPAAGELPGQEPAEAQQYQPWVPGEDGQPSPGVDTQIFEDPREFLSHLEEYLRQVGGSEEYWLSQIQNHMNGPAKKWWEFKQGSVKNWVEFKKEFLQYSEGTLSREAIQRELDLPQKQGEPLDQFLWRKRDLYQTLYVDADEEEIIQYVVGTLQPKLKRFLRHPLPKTLEQLIQRGMEVQDDLEQAAEPAGPHLPVEDEAETLTPAPNSESVASDRTQPE
notes: Activity-regulated cytoskeleton-associated protein (Arc), human, full length, without any mutations; High-molecular-weight forms and capsids with nucleic acid content (260/280 ratio >1); also called capsid hArc; wild-type full length hArc; source: E. coli BL21 CodonPlus, purified (NiNTA, TEV cleavage, Talon)
B11: NbArc-B12 (VHH)
VHH: EVQLLESGGGLVQAGGSLRLSCVASRGPFTTVTMGWYRQTPGKQRESVAHITSDGRANYADSVKGRFTISKDNATNTVYLQMNNLKREDTAVYYCNTIVWPRGPWGQGTQVTVSS
notes: From NanoTag Technologies, His6-TEV-Nb in pNT1433; also called sdAb B12; source: E. coli BL21(DE3), purified (NiNTA, TEV proteolysis, SEC); not shown: His6, N-terminal, cleaved
B12: NbArc-D4 (VHH)
VHH: EVQLVESGGGLVQAGGSLRLSCVASRGPFTTVTMGWYRQTPGRGRELVATINGGGGTRYADSVKGRFTISTDNAKNTVSLQMNSLKPEDTAVYYCNNDGYEWGVKKTYWGQGTQVTVSS
notes: From NanoTag Technologies, His6-TEV-Nb in pNT1433; also called sdAb D4; source: E. coli BL21(DE3), purified (NiNTA, TEV proteolysis, SEC); not shown: His6, N-terminal, cleaved

Key:
[1] = target: the molecule itself; assay: SEC-SAXS; FLrArc-7A alone and with Nb, SWING beamline, HPLC mode; 20 mM HEPES, 150 mM NaCl, 0.5 mM TCEP, pH 7.5 (rArc+H11 in 20 mM Tris, 150 mM NaCl, pH 7.4)
[2] = target: FLrArc-7A, full-length rat Arc with residues 113-119 mutated to Ala (rat, UniProt Q63053, 113-119 MHVWREV to poly-Ala)
[3] = target: T1, human Arc C-terminal domain (hArc-CTD) (human, UniProt Q7LC44); assay: SEC-SAXS; hArc-CTD alone and with Nb, BM29 beamline (ESRF), HPLC mode; conditions: both partners purified
T1 construct: His tag with a linker holding a TEV site; kept in the pull-down; not shown: His6, N-terminal, kept

[4] = target: B1; assay: ITC; 2 mM Stg peptide injected into 198 μM FLrArc-7A; 20 mM Tris-HCl pH 7.4, 150 mM NaCl; 1:1 binding model; conditions: both partners purified
[5] = target: the molecule itself; assay: SEC-SAXS; MBP-2rNT alone, SWING beamline, HPLC mode
[6] = target: rat Arc C-terminal domain as found in the crystals grown from FLrArc-7A (rArc-CTD) (rat, UniProt Q63053)
[7] = target: the molecule itself; assay: SEC; analytical SEC; 2 nmol FLhArc (capsid-containing) with 1.5-fold molar excess of Nb; Superdex 200 Increase 10/300 GL; PBS; fractions on SDS-PAGE

Binder: B1
stoichiometry N [1]: 2

Binder: B2
binding result [2]: binds

Binder: B3
stoichiometry N [3]: 1

Binder: B4
Kd [4]: 34.9 µM
dH [4]: -9.2 kcal/mol
stoichiometry N [4]: 1.09

Binder: B5
stoichiometry N [3]: 1

Binder: B6
stoichiometry N [5]: 2

Binder: B7
binding result [6]: binds

Binder: B8
stoichiometry N [3]: 1

Binder: B9
stoichiometry N [3]: 1

Binder: B10
binding result [7]: binds

Binder: B11
stoichiometry N [3]: 1

Binder: B12
stoichiometry N [3]: 1
